Assay results taken from the supplement of paper PMC10065799, “High-throughput profiling of sequence recognition by tyrosine kinases and SH2 domains using bacterial peptide display” (eLife, 2023).

Columns and labels:
AncSZ = experiment: phosphorylation enrichment, bacterial display (enrichment ratio); higher = better substrate or ligand; peptides without Tyr show the background
EPHB1 = EPHB1 (UniProt P54762); experiment: as above
EPHB2 = EPHB2 (UniProt P29323); experiment: as above
FGFR1 = FGFR1 (UniProt P11362); experiment: as above
FGFR3 = FGFR3 (UniProt P22607); experiment: as above
Chain of FGFR3 (P22607 whole entry, looked up): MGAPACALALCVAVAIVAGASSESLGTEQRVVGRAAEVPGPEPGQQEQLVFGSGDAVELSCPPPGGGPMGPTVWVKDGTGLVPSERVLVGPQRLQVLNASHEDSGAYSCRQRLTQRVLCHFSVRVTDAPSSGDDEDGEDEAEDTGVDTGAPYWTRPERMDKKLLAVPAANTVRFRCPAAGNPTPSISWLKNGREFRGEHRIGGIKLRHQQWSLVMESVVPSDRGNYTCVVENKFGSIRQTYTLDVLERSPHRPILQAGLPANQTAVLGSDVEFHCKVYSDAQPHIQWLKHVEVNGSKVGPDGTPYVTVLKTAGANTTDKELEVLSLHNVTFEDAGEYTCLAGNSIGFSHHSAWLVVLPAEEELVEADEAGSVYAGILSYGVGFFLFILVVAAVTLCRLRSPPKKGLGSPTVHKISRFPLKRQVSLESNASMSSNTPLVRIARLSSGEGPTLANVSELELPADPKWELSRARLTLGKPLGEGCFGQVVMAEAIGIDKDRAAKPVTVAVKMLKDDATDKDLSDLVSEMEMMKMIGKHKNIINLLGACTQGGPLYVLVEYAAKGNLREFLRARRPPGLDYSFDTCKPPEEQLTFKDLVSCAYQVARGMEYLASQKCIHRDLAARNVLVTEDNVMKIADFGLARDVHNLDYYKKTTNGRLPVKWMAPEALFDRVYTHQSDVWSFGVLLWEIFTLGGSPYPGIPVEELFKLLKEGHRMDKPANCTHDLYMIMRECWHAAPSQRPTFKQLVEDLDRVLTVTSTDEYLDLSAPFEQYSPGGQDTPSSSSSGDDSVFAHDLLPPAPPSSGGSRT

Fer (mouse) = experiment: as above
Fes = Fes (UniProt P07332); experiment: as above
Fyn = Fyn (UniProt P06241); experiment: as above
Chain of Fyn (P06241 whole entry, looked up): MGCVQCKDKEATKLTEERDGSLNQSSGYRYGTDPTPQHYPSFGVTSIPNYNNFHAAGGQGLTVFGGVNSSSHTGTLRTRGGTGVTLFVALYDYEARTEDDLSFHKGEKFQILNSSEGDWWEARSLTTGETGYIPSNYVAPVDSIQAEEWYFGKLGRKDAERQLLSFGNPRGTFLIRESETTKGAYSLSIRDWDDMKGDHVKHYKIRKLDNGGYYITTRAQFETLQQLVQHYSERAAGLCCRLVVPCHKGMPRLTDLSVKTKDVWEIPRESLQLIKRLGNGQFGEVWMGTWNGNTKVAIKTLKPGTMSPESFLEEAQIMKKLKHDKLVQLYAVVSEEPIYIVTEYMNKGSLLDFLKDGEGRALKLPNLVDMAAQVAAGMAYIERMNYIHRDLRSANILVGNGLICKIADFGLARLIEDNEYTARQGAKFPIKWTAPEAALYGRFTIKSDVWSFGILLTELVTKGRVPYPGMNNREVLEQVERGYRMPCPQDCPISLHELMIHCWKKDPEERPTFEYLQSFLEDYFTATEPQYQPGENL

Hck = Hck (UniProt P08631); experiment: as above
Chain of Hck (P08631 whole entry, looked up): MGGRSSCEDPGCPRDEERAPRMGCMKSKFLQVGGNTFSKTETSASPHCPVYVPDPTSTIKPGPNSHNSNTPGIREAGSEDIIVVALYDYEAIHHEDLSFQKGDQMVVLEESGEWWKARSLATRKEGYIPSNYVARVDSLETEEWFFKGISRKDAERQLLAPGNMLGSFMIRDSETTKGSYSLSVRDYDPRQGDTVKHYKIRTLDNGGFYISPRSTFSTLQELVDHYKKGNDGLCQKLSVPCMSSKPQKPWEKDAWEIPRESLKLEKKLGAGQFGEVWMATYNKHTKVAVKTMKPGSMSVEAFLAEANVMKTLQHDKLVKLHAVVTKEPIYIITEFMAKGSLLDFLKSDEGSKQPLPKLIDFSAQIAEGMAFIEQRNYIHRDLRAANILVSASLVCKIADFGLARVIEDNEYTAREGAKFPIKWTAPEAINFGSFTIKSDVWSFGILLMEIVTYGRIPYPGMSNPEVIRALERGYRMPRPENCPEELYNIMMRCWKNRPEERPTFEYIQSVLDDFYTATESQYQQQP

Jak2 = Jak2 (UniProt O60674); experiment: as above
Chain of Jak2 (O60674 whole entry, looked up): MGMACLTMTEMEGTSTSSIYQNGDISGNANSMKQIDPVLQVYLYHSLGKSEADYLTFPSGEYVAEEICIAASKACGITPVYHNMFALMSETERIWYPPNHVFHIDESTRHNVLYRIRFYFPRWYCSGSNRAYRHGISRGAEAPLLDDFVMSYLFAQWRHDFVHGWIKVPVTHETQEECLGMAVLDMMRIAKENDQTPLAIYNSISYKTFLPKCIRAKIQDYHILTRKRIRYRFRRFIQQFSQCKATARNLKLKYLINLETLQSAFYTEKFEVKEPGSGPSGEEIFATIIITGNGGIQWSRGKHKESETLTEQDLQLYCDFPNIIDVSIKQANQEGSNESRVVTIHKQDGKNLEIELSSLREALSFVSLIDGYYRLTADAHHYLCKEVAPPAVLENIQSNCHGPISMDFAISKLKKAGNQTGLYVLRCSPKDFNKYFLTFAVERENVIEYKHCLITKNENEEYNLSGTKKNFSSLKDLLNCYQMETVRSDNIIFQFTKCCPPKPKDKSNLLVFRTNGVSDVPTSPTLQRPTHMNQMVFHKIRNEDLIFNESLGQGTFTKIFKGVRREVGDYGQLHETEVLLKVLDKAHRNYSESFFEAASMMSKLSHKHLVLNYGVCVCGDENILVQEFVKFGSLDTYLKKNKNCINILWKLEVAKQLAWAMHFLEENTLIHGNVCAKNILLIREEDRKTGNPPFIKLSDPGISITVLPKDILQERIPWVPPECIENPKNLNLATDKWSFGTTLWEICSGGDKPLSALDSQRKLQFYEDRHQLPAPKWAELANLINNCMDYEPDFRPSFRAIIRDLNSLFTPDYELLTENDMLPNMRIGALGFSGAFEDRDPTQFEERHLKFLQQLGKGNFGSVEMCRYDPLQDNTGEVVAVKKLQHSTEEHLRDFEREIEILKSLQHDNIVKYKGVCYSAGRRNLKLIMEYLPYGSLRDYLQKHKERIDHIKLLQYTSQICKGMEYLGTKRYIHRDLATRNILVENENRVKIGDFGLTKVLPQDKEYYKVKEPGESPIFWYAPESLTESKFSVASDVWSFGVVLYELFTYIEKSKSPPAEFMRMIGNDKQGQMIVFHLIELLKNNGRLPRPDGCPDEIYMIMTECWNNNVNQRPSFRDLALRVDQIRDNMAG

MERTK = MERTK (UniProt Q12866); experiment: as above
Chain of MERTK (Q12866 whole entry, looked up): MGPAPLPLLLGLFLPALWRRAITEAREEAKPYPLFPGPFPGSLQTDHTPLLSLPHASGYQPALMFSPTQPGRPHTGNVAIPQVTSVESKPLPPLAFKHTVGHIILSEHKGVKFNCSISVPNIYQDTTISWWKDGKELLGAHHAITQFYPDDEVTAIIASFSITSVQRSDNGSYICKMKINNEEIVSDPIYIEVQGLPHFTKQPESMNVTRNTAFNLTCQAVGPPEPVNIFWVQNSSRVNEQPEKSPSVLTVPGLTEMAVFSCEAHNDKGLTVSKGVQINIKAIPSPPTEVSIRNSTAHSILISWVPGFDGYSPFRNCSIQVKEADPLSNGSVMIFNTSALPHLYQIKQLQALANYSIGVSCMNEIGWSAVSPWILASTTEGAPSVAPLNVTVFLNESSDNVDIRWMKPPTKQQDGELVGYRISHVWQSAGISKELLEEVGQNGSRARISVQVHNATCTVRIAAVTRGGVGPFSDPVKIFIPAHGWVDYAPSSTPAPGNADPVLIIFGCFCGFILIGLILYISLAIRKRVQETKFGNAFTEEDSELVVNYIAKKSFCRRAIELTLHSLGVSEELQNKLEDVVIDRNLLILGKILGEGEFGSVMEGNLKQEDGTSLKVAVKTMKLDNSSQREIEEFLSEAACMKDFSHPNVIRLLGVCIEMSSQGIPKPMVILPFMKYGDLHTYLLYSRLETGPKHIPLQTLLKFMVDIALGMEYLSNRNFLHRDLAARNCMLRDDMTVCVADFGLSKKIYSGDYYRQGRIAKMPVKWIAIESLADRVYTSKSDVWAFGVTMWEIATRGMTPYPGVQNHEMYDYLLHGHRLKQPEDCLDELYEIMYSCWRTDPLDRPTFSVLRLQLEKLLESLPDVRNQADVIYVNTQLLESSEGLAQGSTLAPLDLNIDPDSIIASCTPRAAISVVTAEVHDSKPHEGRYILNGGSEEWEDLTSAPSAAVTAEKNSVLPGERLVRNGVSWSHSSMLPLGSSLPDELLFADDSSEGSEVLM

c-Abl (mouse) = experiment: as above
c-Src = experiment: as above
Grb2 SH2 = Grb2 SH2 (UniProt P62993); experiment: SH2 binding enrichment of the phosphorylated peptide, bacterial display (enrichment ratio); higher = better substrate or ligand; peptides without Tyr show the background
SHP2-C SH2 = experiment: as above
c-Src SH2 = experiment: as above
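Throughout, for SH2 binding enrichment of the phosphorylated peptide, bacterial display: peptide library displayed on the E. coli surface as eCPX fusions, selected cells deep-sequenced, score is each peptide's frequency after selection divided by its frequency in the input.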
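Throughout, for phosphorylation enrichment, bacterial display: 11-residue human phosphosite peptides and single-mutation variants displayed on the E. coli surface, counted by deep sequencing, each peptide's frequency after selection divided by its frequency in the unselected input library; frequency after pTyr selection over input frequency; kinase dosed for 20-30% of maximal phosphorylation in three min.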

Chain of EPHB1 (P54762 whole entry, looked up): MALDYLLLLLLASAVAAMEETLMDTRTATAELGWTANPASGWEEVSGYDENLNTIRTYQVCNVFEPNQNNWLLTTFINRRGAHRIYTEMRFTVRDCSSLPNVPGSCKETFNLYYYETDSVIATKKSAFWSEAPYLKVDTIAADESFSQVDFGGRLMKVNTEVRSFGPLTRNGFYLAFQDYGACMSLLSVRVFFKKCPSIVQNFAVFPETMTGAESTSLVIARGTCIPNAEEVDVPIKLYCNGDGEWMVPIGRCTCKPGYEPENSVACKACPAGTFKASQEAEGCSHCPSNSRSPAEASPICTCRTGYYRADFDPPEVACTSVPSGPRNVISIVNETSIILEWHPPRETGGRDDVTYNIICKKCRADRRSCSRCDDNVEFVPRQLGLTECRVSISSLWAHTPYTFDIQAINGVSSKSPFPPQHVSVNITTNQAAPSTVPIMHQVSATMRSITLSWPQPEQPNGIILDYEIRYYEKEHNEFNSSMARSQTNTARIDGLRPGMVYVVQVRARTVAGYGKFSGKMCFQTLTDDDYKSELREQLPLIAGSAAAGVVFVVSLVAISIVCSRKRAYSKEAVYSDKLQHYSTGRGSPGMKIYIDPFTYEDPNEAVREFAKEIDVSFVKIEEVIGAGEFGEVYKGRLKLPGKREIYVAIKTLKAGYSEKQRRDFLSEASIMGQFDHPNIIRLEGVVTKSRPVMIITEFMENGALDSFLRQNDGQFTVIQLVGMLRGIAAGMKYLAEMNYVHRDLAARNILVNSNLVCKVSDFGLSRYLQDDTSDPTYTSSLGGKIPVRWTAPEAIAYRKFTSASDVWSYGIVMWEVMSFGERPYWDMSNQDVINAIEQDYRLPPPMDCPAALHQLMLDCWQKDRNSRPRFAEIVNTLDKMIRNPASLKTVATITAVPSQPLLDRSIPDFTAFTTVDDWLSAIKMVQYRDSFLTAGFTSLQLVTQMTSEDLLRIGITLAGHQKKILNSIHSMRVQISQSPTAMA

Sequence | SH2 binding enrichment (Grb2 SH2) | SH2 binding enrichment (SHP2-C SH2) | SH2 binding enrichment (c-Src SH2) | phosphorylation enrichment (AncSZ) | phosphorylation enrichment (EPHB1) | phosphorylation enrichment (EPHB2) | phosphorylation enrichment (FGFR1) | phosphorylation enrichment (FGFR3) | phosphorylation enrichment (Fer (mouse)) | phosphorylation enrichment (Fes) | phosphorylation enrichment (Fyn) | phosphorylation enrichment (Hck) | phosphorylation enrichment (Jak2) | phosphorylation enrichment (MERTK) | phosphorylation enrichment (c-Abl (mouse)) | phosphorylation enrichment (c-Src)
LTFHMYADPNF [SOS1_Y618_YF] | 0.854 | 0.816 | 6.02 | 1.81 | 1.67 | 1.45 | 0.715 | 1.1 | 0.901 | 1.97 | 0.577 | 0.711 | 1.61 | 0.843 | 1.99 | 0.755
LTSKPYAFTAR [NDUFS1_Y236] | 0.684 | 0.767 | 0.533 | 0.663 | 0.617 | 1.08 | 0.67 | 1.36 | 0.591 | 1.1 | 0.722 | 0.58 | 0.398 | 0.649 | 0.453 | 0.534
LTVVIYVLIGR [EPHA3_Y561] | 1.64 | 1.36 | 0.918 | 1.39 | 1.05 | 1.77 | 0.691 | 1.26 | 1.83 | 2.13 | 0.567 | 0.839 | 0.844 | 0.697 | 1.9 | 0.643
LVSCAYQMARG [FGFR1_Y605_V607M] | 0.731 | 0.9 | 0.661 | 1.22 | 0.578 | 0.79 | 0.66 | 0.882 | 0.824 | 2.32 | 0.589 | 0.741 | 0.937 | 0.489 | 0.998 | 1.4
LYNQDYPIHSV [GATM_Y227] | 1.02 | 0.788 | 0.481 | 1.17 | 0.866 | 1.03 | 2.26 | 1.44 | 0.732 | 1.23 | 1.31 | 0.966 | 0.984 | 0.771 | 0.86 | 0.901
MAPQMYESHLP [NCAPD2_Y6_F8S] | 0.76 | 0.495 | 0.71 | 0.501 | 0.548 | 0.702 | 0.477 | 0.657 | 9.41 | 0.555 | 0.45 | 0.568 | 0.524 | 0.466 | 0.437 | 0.378
MARDISRASYY [ALK_Y1278_Y1278S] | 0.776 | 0.519 | 0.433 | 0.525 | 0.422 | 0.395 | 0.464 | 0.452 | 0.33 | 0.73 | 0.475 | 0.395 | 0.65 | 0.453 | 0.59 | 0.463
MCVKSYTIHFS [F5_Y2153_Y2149C_YF] | 0.841 | 0.617 | 0.485 | 1.47 | 0.718 | 0.622 | 0.525 | 1.01 | 0.552 | 1.41 | 0.489 | 0.546 | 1.05 | 0.448 | 1.02 | 0.565
MFNPYYGLFEY [NEDD4L_Y680] | 1.56 | 1.64 | 1.75 | 2.18 | 7.89 | 9.35 | 8.53 | 7.3 | 7.76 | 2.16 | 7.66 | 7.23 | 7.13 | 7.1 | 5.87 | 5.76
MHDSNSVSKGS [PDGFRA_Y849_Y849S] | 0.787 | 0.595 | 0.465 | 0.445 | 0.282 | 0.374 | 0.402 | 0.329 | 0.392 | 0.523 | 0.381 | 0.432 | 0.687 | 0.448 | 0.424 | 0.428

The next lines start with results.

SH2 binding enrichment (Grb2 SH2) | SH2 binding enrichment (SHP2-C SH2) | SH2 binding enrichment (c-Src SH2) | Sequence | phosphorylation enrichment (AncSZ) | phosphorylation enrichment (EPHB1) | phosphorylation enrichment (EPHB2) | phosphorylation enrichment (FGFR1) | phosphorylation enrichment (FGFR3) | phosphorylation enrichment (Fer (mouse)) | phosphorylation enrichment (Fes) | phosphorylation enrichment (Fyn) | phosphorylation enrichment (Hck) | phosphorylation enrichment (Jak2) | phosphorylation enrichment (MERTK) | phosphorylation enrichment (c-Abl (mouse)) | phosphorylation enrichment (c-Src)
1.3 | 1.76 | 1.21 | LVMFIYAIFWM [SCN1A_Y1684_G1688W] | 1.07 | 0.525 | 0.491 | 0.566 | 0.626 | 0.531 | 1.05 | 0.563 | 0.558 | 0.963 | 0.527 | 0.739 | 0.5
1.16 | 0.762 | 0.542 | LVMFTYAIFGM [SCN1A_Y1684_I1683T] | 2.09 | 1.78 | 1.43 | 0.728 | 1.73 | 1.08 | 2.16 | 2.15 | 1.48 | 2.23 | 0.937 | 1.82 | 2.9
0.632 | 0.506 | 0.522 | MDDPRYGMCPL [ZNF100_Y6] | 1.16 | 0.687 | 0.675 | 0.538 | 0.838 | 0.607 | 1.38 | 0.721 | 0.56 | 1.27 | 0.56 | 1.01 | 0.685
0.701 | 1.15 | 0.526 | MSGDVYSTDFF [NTRK2_Y702_R699G_YF] | 1.08 | 1.02 | 1.32 | 1.42 | 1.18 | 0.775 | 1.06 | 5.33 | 2.4 | 0.959 | 6.82 | 0.736 | 4.62
0.778 | 0.874 | 0.622 | MSGDVYSTDYY [NTRK2_Y702_R699G] | 1.99 | 1.58 | 1.99 | 3.16 | 2.29 | 0.863 | 1.16 | 4.31 | 2.39 | 1.05 | 6.54 | 0.784 | 4.64
